Measured values from publication PMC9972897 (Science immunology, 2023).
Positions count from the first letter of the chain named.

B1: fp.011 (antibody, V domains shown)
VH: EVQLLESGGGLVQPGGSLRLSCAGSGFTFNNYAMTWVRQAPGRGLEWVSAISGSGGSSHYADSVKGRFTITRDNSKNTLYLQMNSLRAEDTAVYYCAFIDYYSGWSYYYGLDVWGQGTTVTVSS
VL: EIVLTQSPATLSLSPGERATLSCRASQGVRTYVAWYQQKPGQAPRLLIYDASNRATGIPARFSGSGSGTDFTLTISSLEPEDFAVYYCQQRYNWPLCSFGQGTKLEIK
B2: fp.010 (antibody, V domains shown)
VH: EVQLLESGGGLVQPGGSLRLSCAASGFTFSTYAMNWVRQAPGKGLEWVSAISSSGLSTQYADSVRGRFTISRDTSKNTLYLHMNSLRAGDTAVYYCAKVEYSGYDPRGPFDSWGQGTLVTVSS
VL: DIQMTQSPSTLSASVGDRVTITCRASQSISGWLAWYQQKPGRAPKLLIYKASSLERGVPSRFSGSGSGTEFTLTISSLQPDDFATYYCQEYSSYPLCTFGQGTKLEIK
B3: fp.001 (antibody, V domains shown)
VH: VQLVESGGGVVQPGRPLRLSCSGSGFIFSNYAMHWVRQAPGKGLEWVAIISFDARNKRYADSVEGRFTISRDNSKNILYLQMNSLRLEDSAVYFCARDLFLSDYDNGVYDPTRGGFDYWGQGTLVTVSS
VL: EIVMTQSPATLSLSPGERATLSCRASQSVNNRLAWYQQKLGQPPRLLISGASTRATGIPARFTGSGSGTEFTLTISSLQSEDFAVYYCQQYHDWPLLSFGGGTKVEIK
B4: hr2.017 (antibody, V domains shown)
VH: EVQLVESGGGLVQPGGSLRLSCAVSGFAFSSSWMHWIRQAPGRGLVWVSRINRDGSTTDYADSVKGRFTISRDNAKATLYLQMNSLRAEDTAVYYCATMGFDYWGQGALVTVSS
VL: DIVMTQSPDSLAVSLGERATINCKSSQNVLYSSNNKNHLSWYQQKPGQPPKLLIYWASTRKSGVPDRFSGSGSGTDFTLTINSLQAEDVAVYYCQQYFSTPNTFGQGTKLEIK
B5: hr2.014 (antibody, V domains shown)
VH: QVQLVQSGAEVKKPGASVKVSCKASGYTFTTYAVHWLRQVPGQRPEWIGWINAANGNTKYSEKFQGRVTITRDTSASTAYMDLRSLRSEDTAVYYCARLLVVRDDPYYYGMDVWGQGTTVTVSS
VL: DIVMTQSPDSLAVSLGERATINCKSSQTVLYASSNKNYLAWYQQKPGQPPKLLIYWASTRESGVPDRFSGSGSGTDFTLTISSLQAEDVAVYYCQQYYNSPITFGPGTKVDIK
B6: hr2.086 (antibody, V domains shown)
VH: EVQLLESGGGLVQPGGYLRLSCAASGFTFSSYAMSWVRQAPGKGLEWVSVISGGGGSAYYADSVKGRFTISRDNSKNTLYLQMNSLRAEDTAVYYCAKIGMILVFDYWGQGTLVTVSS
VL: EIVLTQSPGTLSLSPGERATLSCRASQSVSNNYLAWYQQKPGQAPRLLISGASSRATGIPDRFSGSGSGTDFTLTISRLEPEDFAVYYCQQYGSSPPTFGQGTKVEIK
B7: hr2.012 (antibody, V domains shown)
VH: QVQLVQSGAEVKKPGASVKVSCKASGYTFTSHYIHWVRQAPGQGLEWMGIIKPSGGNTIYAQTFQGRVTMTRDTSTSTVYMELRSLTSDDTAVYYCARDQDHGLQRWGQGTLVTVSS
VL: QSVLTQPPSVSAPPGQKVTISCSGSSSNIGNNFVSWYQQLPGTAPKLLIYDNIERPSGIPDRFSGSRSGTSATLGITGLQTGDEADYYCGTWDTSLGAWVFGGGTKVTVL
B8: hr2.015 (antibody, V domains shown)
VH: QVQLVQSGAEVKKPGASVKVSCKASGYTFSSYYVNWVRQAPGQGLEWLGIINRSGSSTIYAQKFQGRVTMTRDTSTSTVYLELSSLRSEDTAVYYCARDQDHALHWGQGTLVTVSS
VL: B7 VL with P13A, N31S, F33Y, I53S, G97S, V107L
B9: hr2.013 (antibody, V domains shown)
VH: QVQLVQSGAEVKKPGASVKISCKASGYTFTNNYMNWVRQAPGQGLEWMGIIKPSSGSTIYAHKFQGRVTMTRDTSTSTVYMEVRSLTSEDTAVYYCARDQDHGLQNWGQGTLVTVSS
VL: B7 VL with P13A, P14S, S21Y, G30A, N31S, L40F, I53N, E54Q, V107L
B10: hr2.025 (antibody, V domains shown)
VH: EVQLVQSGAEVKKPGESLKISCKGSGYSFTNYWIAWVRLMPGKGLEWMGFIFPGDSDTRYSPSFQGQVTISADKSISTAYLQWSSLKASDTAIYYCARRRGNSGNHDPYGMDVWGHGTTVTVSS
VL: not shown
B11: hr2.018 (antibody, V domains shown)
VH: EVQLVESGGGLVKPGGSLRLSCVASGSSVIDAWMNWVRQAPGKGLEWVGRIKSKTNGATTDYAAPVKGRFTISRDDSKNLSYLQMNSLKTEDTGIYYCTTSPLPNFDYWGRGTLVTVSS
VL: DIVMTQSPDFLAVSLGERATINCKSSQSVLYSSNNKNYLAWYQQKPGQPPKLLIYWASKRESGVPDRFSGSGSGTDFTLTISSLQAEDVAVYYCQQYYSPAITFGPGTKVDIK
B12: hr2.019 (antibody, V domains shown)
VH: B11 VH with V23A, A32V, S53T, T55A, N56S, T59A, A63G, K89R, T90A
VL: DIVMTQSPDFLAVSLGETATINCRSSQSVFYFANNKNYLAWYQQKPGQPPKLLIYWASKRESGVPDRFSGSGSGTDFTLTISSLQAEDVATYYCQQYSSPAITFGPGTKVDIK
B13: hr2.090 (antibody, V domains shown)
VH: EVQLLESGGGLVQPGGSLRLSCAASGVTFSRYAMSWVRQAPGKGLEWVSTISGGGGGTYYADSVKGRFTISRDNSKNTLYLQMNSLRAEDTAVYYCATLLTVPGPYYFEYWGQGTLVTVSS
VL: EIVLTQSPGTLSLSPGERATLSCRASQSVSSSYLAWYQQKPGQAPRLLIYGASSRATGIPDRFSGSGSGTDFTLTISRLESEDFAVYYCQHSRFTFGPGTRVDIK
B14: hr2.021 (antibody, V domains shown)
VH: QVQLVQSGAEVKKPGASVKVSCKASEAIFSGSYLHWVRQAPGQGLEWMGIITPSGDKTFYAQRFQGRLTMTRDTSTNTLHMHLSGLNSEDTAMYYCARQADKGGWDYWGQGTLVTVSS
VL: EIVLTQSPGTLSLSPGERATLSCRASQSVTSNYVAWYQQKPGQAPRLLIYGASTRATGIPDRFSGGGSGTDFTLTITRLEPEDFAVYYCQQYGSSPPTFTFGPGTKVDIK
B15: hr2.024 (antibody, V domains shown)
VH: QVQLVQSGAEVKKPGASVKVSCKASEDIFTDSYLHWVRQAPGQGLEWMGIITPSGDKTFYAQQFQGRLTMTRDPSTNTLYMFLSGLRSDDTAMYFCARQAEKGGWDYWGHGTLVTVSS
VL: B14 VL with E17Q, A25S, S28T, V29I, V34L, K40R, T54I, G66S, T77S, T100I
B16: hr2.094 (antibody, V domains shown)
VH: EVQLVESGGGLVQPGGSLRLSCAASGFTFSTFWMTWVRQAPGKGLEWVANIKSDGSEKYYVDSVKGRFTISRDNAKNSLYLQMNSLRAEDTAVYYCATWFGLHWGQGTLVTVSS
VL: DIVMTQSPDSLAVSLGERASINCKSSQTVLYSSNNKNYLAWYQQKPGQPPKLLIHWASTRDSGVPDRFSGSGSGTDFTLTISSLQAEDVAVYYCQQYHRIPWTFGRGTKVEIK
B17: hr2.020 (antibody, V domains shown)
VH: EVQLVQSGAEVKKPGESLKISCKGSGYRFASHWIGWVRQMPGKGLQWMGIIYPGDSDTKYSPSFQGQVTISADKSINTVYLHWTSLKASDTAVYYCARRPPHLDGGDSPIRFDHWGQGTLVTVSS
VL: QSVLTQPPSASGTPGQRVTISCSGSRSNIGSNDVYWYQQFPGTAPKLLIYRNNQRPSGVPDRFSGSKSGTSASLAISGLRSEDEADYYCATWDDRLTGVFGGGTKLTVV

target: SARS-CoV-2 fusion peptide (FP) coldspot peptide, 812-831 (SARS-CoV-2 (ancestral), biotin-Ahx at the N-terminus; C-terminal amidation)

| Binder | binding result |
| --- | --- |
| B1 | binds |
| B2 | binds |
| B3 | binds |

target: SARS-CoV-2 S-2P ectodomain trimer (ancestral) (SARS-CoV-2 (ancestral, MN908947), stabilised)

| Binder | binding result |
| --- | --- |
| B4 | binds |
| B5 | binds |
| B6 | binds |
| B7 | binds |
| B8 | binds |
| B9 | binds |
| B10 | binds |
| B11 | binds |
| B12 | binds |
| B3 | binds |
| B13 | binds |
| B14 | binds |
| B15 | binds |
| B16 | binds |
| B17 | binds |
